Laboratory results reported in US11479582B2 (KING FAISAL UNIVERSITY, dated 2022).

Target: SARS-CoV-2 spike (S) protein, expressed from a synthetic S gene (SARS-CoV-2, UniProt P0DTC2)
Assay: cell-based or functional assay

B1: peptide #121 (mutated HR2 39-mer, 'Highest Affinity') (peptide)
peptide: HVLGDISGINASVVQIQKEIDRLNEVAKNLHESLIYLQE
- IC50, SARS-CoV-2 Spike-mediated cell-cell fusion: 720 nM
- IC50, SARS-CoV-2 pseudovirus infection in Calu-3 cells: 160 nM
- IC50, SARS-CoV-2 pseudovirus infection in VeroE6: > 10000 nM
- IC50, TMPRSS2-dependent plasma membrane pathway in VeroE6-TMPRSS2: < 1000 nM
